Measurements as given in patent US20230002798A1, “PROCESS FOR THE PREPARATION OF A FERMENTABLE SUGAR COMPOSITION AND THE FERMENTATION THEREOF” (WeissBioTech GmbH, priority 2019, published 2023).

B1: Gth: oligo-1,6-glucosidase of Parageobacillus thermoglucosidasius, amino acid sequence SEQ ID NO:2, expressed in Bacillus subtilis (protein, listed as Parageobacillus thermoglucosidasius)
chain: MERVWWKEAVVYQIYPRSFYDSNGDGIGDIRGIIAKLDYLKELGVDVVWLSPVYKSPNDDNGYDISDYRDIMDEFGTMADWKTMLEEMHKRGIKLVMDLVVNHTSDEHPWFIESRKSKDNPYRDYYIWRPGKNGKEPNNWESVFSGSAWEYDEMTGEYYLHLFSKKQPDLNWENPKVRREVYEMMKFWLDKGVDGFRMDVINMISKVPELPDGEPQSGKKYASGSRYYMNGPRVHEFLQEMNREVLSKYDIMTVGETPGVTPKEGILYTDPSRRELNMVFQFEHMDLDSGPGGKWDIRPWSLADLKKTMTKWQKELEGKGWNSLYLNNHDQPRAVSRFGDDGKYRVESAKMLATFLHMMQGTPYIYQGEEIGMTNVRFPSIEDYRDIETLNMYKERVEEYGEDPQEVMEKIYYKGRDNARTPMQWDDSENAGFTAGTPWIPVNPNYKEINVKAALEDPNSVFHYYKKLIQLRKQHDIIVYGTYDLILEDDPYIYAYTRTLGNEQLIVITNFSEKTPVFRLPDHIIYKTKELLISNYDVDEAEELKEIRLRPWEARVYKIRLP
modifications: WP_042386239.1 alpha-glucosidase
B2: Agl1: oligo-1,6-glucosidase of Bifidobacterium breve UCC2003, amino acid sequence SEQ ID NO:1, expressed in Bacillus subtilis (protein)
chain: MMTTFNRAIIPDAIRTNGATPNPWWSNAVVYQIYPRSFQDTNGDGFGDLKGITSRLDYLADLGVDVLWLSPVYKSPQDDNGYDISDYQDIDPLFGTLDDMDELLAEAHKRGLKVVMDLVVNHTSDEHAWFEASKNKDDEHADWYWWRPARPGTTPGEPGSEPNQWGSYFGGSAWEYCPERGEYYLHQFSKKQPDLNWENPAVRRAVYDMMNWWLDRGIDGFRMDVITLISKRTDANGRLPGEYGSELDDLPVGEEGYSNPNPFCADGPRQDEFLKEMRREVFAGREGFLTVGEAPGITPVRNEHITNPANGELDMLFLFDHVDFDCDGVKWKPLPLDLPGFKRIMAGYQTAVENVGWASLFTGNHDQPRVVSRWGDDSSEESRVRSAKALGLMLHMHRGTPYVYQGEELGMTNAHFTSLDQYRDLESLNAYRQRVEEAKVQSPESMLAGIAARGRDNSRTPMQWDGSAYAGFTAPDAATEPWISVNPNHAEINAAGEFDDPDSVYAFYKKLIALRHNSSIVAAGEWQLIDADDAHVYAFTRTLGNERLLVVVNLSGRTVDLPRESTELIAGGVTEPDIILSTYDAPHTVVSLANRELDPWEAAAVQL
modifications: Bifidobacterium breve UCC2003; ACM89182.1 alpha-glucosidase 1

How the values were obtained:
[1] = SSF of maltodextrins with added trehalose, 24 h (Example 1); set-up: species or system Yeast (Deltaferm® AL-18); conditions: SSF 24 h, maltodextrin + 20 g/L trehalose, enzyme 937.5 kU per ton
Protocol: (§1) Quantification of ethanol yield Ethanol was quantified via HPLC. Samples were taken at the end of the SSF or during SSF at set time points. Samples were centrifuged for 1 min at 17,000 xg and sterile filtered (0.2 μm). The samples were frozen at −80° C. prior to measurements. Ethanol was determined with an Aminex 87C column (Bio-Rad Laboratories, Inc., US) on a Shimadzu HPLC system.
(§2) For simultaneous saccharification and fermentation (abbreviated SSF), the oligo-1,6-glucosidases—either Agl1 or Gth—were used as crude Bacillus extract. Glucidex® Maltodextrin 12 (Roquette, FR) was dissolved in SSF-medium (5 g/L yeast extract, 5 g/L peptone, 1 g/L K2HIPO4, 0.5 g/L Mg2SO4 in 50 mM citrate buffer, pH 4.8) at 300 g/L. Panose, isomaltose, isomaltotriose, maltose, maltotriose, or trehalose was added at 20 g/L. As a positive control, 20 g/L glucose was added instead of the respective sugar. The SSF medium containing starch hydrolysate (maltodextrins) and sugars was sterile filtered (0.2 μm). Yeast (Deltaferm® AL-18, WeissBioTech GmbH, Ascheberg, Germany) was grown in YINaC medium (50 g/L dextrose, 5 g/L yeast extract, 5 g/L peptone, 1 g/L K2HPO4, 0.5 g/L Mg2SO4*7H2O, 2 g/L NH4Cl in 50 mM sodium citrate, pH 4.8) for 2 days at 37° C. and harvested by centrifugation for 15 min at 5100 rpm and 8° C. Pelleted yeast was added to the SSF-medium at a final concentration of 6 g/L. Glucoamylase (Deltazym® GA L-E5, WeissBioTech GmbH, Ascheberg, Germany) was added at 40 g per ton of dry starch equivalent. The enzyme product Agl1 or Gth was added up to a final concentration of 187.5 kU per ton of dry starch equivalent. For the SSF with trehalose, Agl1 or Gth was added at 937.5 kU per ton of dry starch equivalent. As a negative control, an SSF as described above was run without oligo-1,6-glucosidase/enzyme product. The SSF was performed at 30° C. without stirring or shaking for 24 h.

[2] = SSF of maltodextrins with added isomaltotriose, 24 h (Example 1); set-up: species or system Yeast (Deltaferm® AL-18); conditions: SSF 24 h, maltodextrin + 20 g/L isomaltotriose, enzyme 187.5 kU per ton
Protocol: as §1, §2

[3] = SSF of maltodextrins with added maltose, 24 h (Example 1); set-up: species or system Yeast (Deltaferm® AL-18); conditions: SSF 24 h, maltodextrin + 20 g/L maltose, enzyme 187.5 kU per ton
Protocol: as §1, §2

[4] = SSF of maltodextrins with added maltotriose, 24 h (Example 1); set-up: species or system Yeast (Deltaferm® AL-18); conditions: SSF 24 h, maltodextrin + 20 g/L maltotriose, enzyme 187.5 kU per ton
Protocol: as §1, §2

[5] = SSF of commercial liquefied starch, 72 h (Example 3); set-up: species or system Yeast (Deltaferm® AL-18); conditions: SSF 72 h, commercial liquefied starch 300 g/L, glucoamylase 200 g/t, enzyme 187.5 kU per ton
Protocol: as §1
Residual sugars were quantified via HPLC. Samples were taken at the end of the SSF or during SSF at set time points. Samples were centrifuged for 1 min at 17 000 xg and sterile filtered (0.2 μm). The samples were frozen at −80° C. prior to measurements. Residual sugars were determined with a Zorbax NH2 column (Agilent Technologies, Inc., US) on an Agilent 1200 HPLC system.
Liquefied starch was analysed prior to use on a Zorbax NH2 column (Agilent Technologies, Inc., US) for analysis of mono-, di- and trisaccharide type and content, and on an Aminex 42A column (Bio-Rad Laboratories, Inc., US) for analysis of degree of polymerisation (DP) detecting DP1-DP6 content. IPLC was performed on a Shimadzu IPLC system.
For SSF, the enzyme product was used as crude Bacillus extract. Acidified liquefied starch (pH 2.0) from a commercial plant, containing no detectable amounts of panose, isomaltose, isomaltotriose or trehalose, was brought to pH 4.8. SSF medium components (5 g/L yeast extract, 5 g/L peptone, 1 g/L K2HIPO4, 0.5 g/L Mg2SO4 in 50 mM citrate buffer, pH 4.8) were added to liquefied starch (300 g/L). The SSF medium containing starch was sterile filtered (0.2 μm). Yeast (Deltaferm® AL-18, WeissBioTech GmbH, Ascheberg, Germany) was grown in YINaC medium (50 g/L dextrose, 5 g/L yeast extract, 5 g/L peptone, 1 g/L K2HPO4, 0.5 g/L Mg2SO4*7H2O, 2 g/L NH4Cl in 50 mM sodium citrate, pH 4.8) for 2 days at 37° C. and harvested by centrifugation for 15 min at 5100 rpm and 8° C. Pelleted yeast was added to the SSF at a final concentration of 6 g/L. Glucoamylase (Deltazym® GA L-E10, WeissBioTech GmbH, Ascheberg, Germany) was added at 200 g per ton of dry starch equivalent. The enzyme product Agl1 or Gth was added to a final concentration of 187.5 kU per ton of dry starch equivalent. As control, no oligo-1,6-glucosidase/enzyme product was added. The SSF was performed at 30° C. without stirring or shaking for 72 h.

[6] = Process stability (SSF medium without starch, pH 4.8, 30° C., 72 h); type: physicochemical; conditions: after 72 h at 30° C., pH 4.8, SSF medium without starch
Protocol: Process stability was determined by incubating the enzymes under process conditions (SSF medium without starch, pH 4.8, 30° C.) for 72 h and measuring the remaining activity.

[7] = Storage stability (50% v/v glycerol, 4° C.); type: physicochemical; conditions: at 4° C., extrapolated from 12 months data
Protocol: Storage stability was determined by measuring the activity of the enzymes stored in a glass container in a stabilizing formulation (50% v/v glycerol) at 4° C. over a time period of 12 months. […] “Without a loss in activity” is defined as an extrapolated activity of greater than 95% of the initial activity.

Row | Molecule | ethanol concentration increase by % compared to the negative control [1] [%] | ethanol concentration increase compared to the negative control [1] | ethanol concentration increase by % compared to the negative control [2] [%] | ethanol concentration increase compared to the negative control [2] | ethanol concentration increase by % compared to the negative control [3] [%] | ethanol concentration increase compared to the negative control [3] | ethanol concentration increase by % compared to the negative control [4] [%] | ethanol concentration increase compared to the negative control [4] | ethanol concentration increase by % compared to the negative control [5] [%] | ethanol concentration increase compared to the negative control [5] | process stability (remaining activity) [6] [%] | storage stability without a loss in activity [7]
1 | B1 | 31 | 0.26 percentage points (v/v) | 48 | 0.57 percentage points (v/v) | 2.8 | 0.06 percentage points (v/v) | 0 | 0.00 percentage points (v/v) | 4 | 0.47 percentage points (v/v) | 80 | 18-24 month
2 | B2 | 226 | 1.86 percentage points (v/v) | 40 | 0.48 percentage points (v/v) | 1.5 | 0.03 percentage points (v/v) | 1 | 0.03 percentage points (v/v) | 2 | 0.30 percentage points (v/v) | 80 | 18-24 month
